The record followed here is US20110086026A1 (ROCHE PALO ALTO, published 2011).

Assay [1] deals with FcγRIIIa (CD16) on Natural Killer (NK) cells (UniProt P08637). The assay can be described thus: FACS on NK cells in PBMC, maximum binding at 20 µg/ml.
For assay [2], the target named is T1, extracellular domain of hIL-13Rα1 cleaved from hIL-13Rα1:hFc chimeric protein (human, UniProt P78552 22-343).
T1 construct: extracellular domain; also called Cleaved hIL-13Rα1 molecules (MW 40 kDa)
T1 sequence (looked up): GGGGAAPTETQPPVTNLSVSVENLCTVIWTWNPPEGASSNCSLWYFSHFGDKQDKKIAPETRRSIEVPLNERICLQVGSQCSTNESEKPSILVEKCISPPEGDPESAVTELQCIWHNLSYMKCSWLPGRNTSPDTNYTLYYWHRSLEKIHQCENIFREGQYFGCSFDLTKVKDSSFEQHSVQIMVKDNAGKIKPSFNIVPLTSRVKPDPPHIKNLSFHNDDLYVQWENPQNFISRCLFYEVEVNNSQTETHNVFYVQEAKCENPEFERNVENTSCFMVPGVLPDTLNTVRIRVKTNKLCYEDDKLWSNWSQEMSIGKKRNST
Nature of the assay: SPR Biacore 3000, CM5 chip, HuMab captured by anti-hFcγ, cleaved hIL-13Rα1 as analyte, bivalent analyte model. The procedure:
(§1) In these experiments, the affinity of the original IgG1 derived from hybridoma was compared with the affinities of the recombinant variant IgG1-Ala-Ala. For interaction analysis, a Biacore 3000 instrument was used. Running and reaction buffer was HBS-P (10 mM HEPES, 150 mM NaCl, 0.005% polysurfactant P, pH 7.4) at 25° C. Capturing antibody molecules (anti-hFcγ) were amine-coupled at a concentration of 20 μg/ml at a flow rate of 5 μl/min for 20 minutes. HuMabs were injected at concentrations of 10 μg/ml at a flow rate of 10 μl/min for 1 minute. Cleaved hIL-13 Rα1 molelcules (analyte) were injected for five minutes at eight concentrations between 1.56 nM and 200 nM and washed with HBS-P for five minutes. Regeneration of the surface was accomplished by two injections of 100 mM HCl for 1 min each. The chip, assay format and sequence of injections and kinetic data correspond to the description in Table 4. Kinetic data were calculated by fitting kinetic data to a bivalent analyte binding model.

Assay [3] has as its target T1, extracellular domain of hIL-13Rα1 …. The assay can be described thus: SPR Biacore 3000, CM5 chip, HuMab captured by anti-hFcγ, cleaved hIL-13Rα1 as analyte, bivalent analyte model (kd1). The procedure:
as §1

Sequence of FcγRIIIa (CD16) on Natural Killer (NK) cells (P08637 17-254 limits assumed): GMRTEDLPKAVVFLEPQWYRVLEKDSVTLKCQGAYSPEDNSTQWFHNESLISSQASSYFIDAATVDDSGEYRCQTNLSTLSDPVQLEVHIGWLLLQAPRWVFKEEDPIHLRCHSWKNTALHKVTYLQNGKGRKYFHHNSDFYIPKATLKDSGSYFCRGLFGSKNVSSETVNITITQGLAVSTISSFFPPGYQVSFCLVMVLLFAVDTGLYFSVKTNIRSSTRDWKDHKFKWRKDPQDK

B1: HuMab LC5002-005 (antibody, V domains shown)
VH: EVQVLDSGGGLVQPGGSLRLSCTASGFTFRLYTMSWVRQTPGRGLEWVSGISGSGLSTYFADSVKGRFTISRDNSKNTVYLQMNSLRAEDTAVYYCAKEGDWIYFDSWGQGTLVIVSS
VL: DIQMTQSPSSLSASVGDRVTITCRASQGISSWLAWYQQKPEKAPKSLIYAASSLQSGVPSRFSGSGSGTDFTLTISSLQPEDFATYYCQQYNSHPPTFGQGTKLEIK
notes: Only the variable domains are tied to this antibody; also called hu-MAB<h-IL-13Ralpha>LC.5002-005 (DSM ACC2711)
The molecule B1 came in with a Bmax (MFI) in assay [1] of 581 MFI. The same molecule returned a Kd in assay [2] of 2.7 nM. The koff in assay [3] worked out at 0.00036 s⁻¹.
